Substitutions are numbered along the chain they refer to. Names may count otherwise. Like-named read-outs stand apart in the source and are kept apart here.
Experiments:
[1] = system: Ape-MnP1; details: read-out: Ape-MnP1 Q333P; 0.3 mM H2O2, 100 mM sodium tartrate, optimal pH, 25 °C
[2] = system: Ape-MnP1; experiment: steady-state oxidation, coerulignone formation at […] nm; assay type: biochemical, Agrocybe pediades; details: 0.3 mM H2O2, 100 mM sodium tartrate, optimal pH, 25 °C; read-out: Ape-MnP1 Q333P
[3] = substrate: CCn1c(=NN=c2sc3cc(S(=O)(=O)O)ccc3n2CC)sc2cc(S(=O)(=O)O)ccc21; experiment: purified protein; assay type: biochemical, Agrocybe pediades; details: 0.3 mM H2O2, 100 mM sodium tartrate, optimal pH, 25 °C
[4] = substrate: COc1cccc(OC)c1O; experiment: purified protein; assay type: biochemical, Agrocybe pediades; details: 0.3 mM H2O2, 100 mM sodium tartrate, optimal pH, 25 °C
[5] = substrate: CCn1c(=NN=c2sc3cc(S(=O)(=O)O)ccc3n2CC)sc2cc(S(=O)(=O)O)ccc21; experiment: purified protein; assay type: biochemical, Cyathus striatus; details: 0.3 mM H2O2, 100 mM sodium tartrate, optimal pH, 25 °C
[6] = substrate: COc1cccc(OC)c1O; experiment: purified protein; assay type: biochemical, Cyathus striatus; details: 0.3 mM H2O2, 100 mM sodium tartrate, optimal pH, 25 °C

Q: For `CCn1c(=NN=c2sc3cc(S(=O)(=O)O)ccc3n2CC)sc2cc(S(=O)(=O)O)ccc21` [ABTS], which Km [1] is on record?
A: 1890 ± 250 µM

Q: For `COc1cccc(OC)c1O` [DMP], which Km [2] is on record?
A: 2900 ± 590 µM

B1: Ape-MnP1 (Agrocybe pediades) (protein)
chain: TICADGTSVANGACCKLIPVVKDLTENLFEGECGDAAHGALRLVFHDAIAISPTLGGGGADGSIAVFNATELTFHANTGIDDVLDAVGPFLLKHSDVMTPGDFIQLAGAVSLTQCNGAPRVKFVMGRPPPKAAAPNLLVPEPFDSVATILQRFGELGFTKEETVAVIGGSHSVAGADDIVPNEQGIPFDQTPSIFDTQIFVDVQLRGTMIPGNGTTEGEVETAVPGTVRLQSDHLLARDASTSCIWQSFVNQQSKMAQVFGEAIFKMSLLGQTQSKLIDCSEVIPRAIPFSHGPATLPPGQTLKDIEQACAASPFPTLSTQPGPVTSVPAIPQADDS
Q: For B1, which Km [3] is on record?
A: 2730 ± 280 µM

Q: What about the kcat [3] of the same molecule?
A: 146 ± 6 s⁻¹

Q: What about the kcat/Km [3] of the same molecule?
A: 53000 ± 6000 M⁻¹ s⁻¹

Q: What about the Km [4] of the same molecule?
A: 2880 ± 490 µM

Q: And the kcat [4]?
A: 11.5 ± 0.8 s⁻¹

Q: And the kcat/Km [4]?
A: 4200 ± 500 M⁻¹ s⁻¹

B2: Cst-MnP1 (Cyathus striatus) (protein)
chain: VTCPDGHVTANRACCALFPVVQNLQENLFDGGECGEEAHSALRLSFHDAIGFSLNSNKGGGADGSILLFNATELTFHANGGIDDITSRQFPVFETTGLTPGDFVHLAGAVGTANCPGAPRLQFMFGRPPPIAPAPDLTVPEPTDDVDAILARFADAGFDASEVVALLSSHTIAAADVVDVTIPGTPFDSTVGTFDTQVFLEVLLAGRSFPGNGSQPGEVLSPLAGEMRLQSDFVVSRDSRTACLWQAMVNNQQLMVSSFAAAMAKLQVLGQNVNTMVDCSDVIPEPAPFAGPIKFPASFSMADVEQACASTFPQIQTVAGPAPTVAPVPGS
Q: With B2 as the molecule, how does the Km [5] read?
A: 3250 ± 220 µM

Q: And the kcat [5]?
A: 60 ± 1.4 s⁻¹

Q: And the kcat/Km [5]?
A: 18000 ± 1300 M⁻¹ s⁻¹

Q: What about the Km [6] of the same molecule?
A: 4650 ± 560 µM

Q: What about the kcat [6] of the same molecule?
A: 4.2 ± 0.2 s⁻¹

Q: And the kcat/Km [6]?
A: 980 ± 120 M⁻¹ s⁻¹

B3: Cst-MnP1 (Cyathus striatus; E36A) (protein)
chain: B2 chain with E36A
Q: B3 was tested. Which Km [5] did it give?
A: 1900 ± 455 µM

Q: What about the kcat [5] of the same molecule?
A: 67 ± 18 s⁻¹

Q: What about the kcat/Km [5] of the same molecule?
A: 35500 ± 12800 M⁻¹ s⁻¹

Q: And the Km [6]?
A: 2120 ± 500 µM

Q: And the kcat [6]?
A: 2.62 ± 0.17 s⁻¹

Q: And the kcat/Km [6]?
A: 1240 ± 300 M⁻¹ s⁻¹

B4: Cst-MnP1 (Cyathus striatus; S40A) (protein)
chain: B2 chain with S40A
Q: Which Km [5] does the source give for B4 here?
A: 2990 ± 455 µM

Q: And the kcat [5]?
A: 112 ± 4.6 s⁻¹

Q: What about the kcat/Km [5] of the same molecule?
A: 37500 ± 5900 M⁻¹ s⁻¹

Reference: article PMC11144326, “Structure–function characterization of two enzymes from novel subfamilies of manganese peroxidases secreted by the lignocellulose-degrading Agaricales fungi Agrocybe pediades and Cyathus striatus” (Biotechnology for Biofuels and Bioproducts, 2024)
